B1: Tryptophan synthase alpha chain, P0A877 (parent)
chain: MERYESLFAQLKERKEGAFVPFVTLGDPGIEQSLKIIDTLIEAGADALELGIPFSDPLADGPTIQNATLRAFAAGVTPAQCFEMLALIRQKHPTIPIGLLMYANLVFNKGIDEFYAQCEKVGVDSVLVADVPVEESAPFRQAALRHNVAPIFICPPNADDDLLRQIASYGRGYTYLLSRAGVTGAENRAALPLNHLVAKLKEYNAAPPLQGFGISAPDQVKAAIDAGAAGAISGSAIVKIIEQHINEPEKMLAALKVFVQPMKAATRS

Variants of: B1
Conditions: Escherichia coli (strain K12), 25 °C, GdnHCl, CD, reversible: yes, structure 1WQ5, whole UniProt chain shown
[1] = pH 7, Potassium phosphate 0.01 M

Variant	ddG of mutation (higher = less stable) (pH 5.5, acetate 0.05 M) [kcal/mol]	unfolding free energy (pH 5.5, acetate 0.05 M) [kcal/mol]	ddG of mutation (higher = less stable) [1] [kcal/mol]	unfolding free energy [1] [kcal/mol]	ddG of mutation (higher = less stable) (pH 9, Tris-HCl 0.025 M) [kcal/mol]	unfolding free energy (pH 9, Tris-HCl 0.025 M) [kcal/mol]
E49M	-0.7	5.9	-4.5	13.3	-3.5	8.4
E49V	-0.9	6.1	-3.2	12	-4.5	9.4
E49Y	0.4	4.8	0	8.8	-1.9	6.8
E49S	1.3	3.9	1.4	7.4	-3.1	8
E49Q	2.4	2.8	2.5	6.3	-3.6	8.5

— FireProtDB (doi:10.1016/0022-2836(82)90184-x)
